What was measured:
[1] = target: T1, full length DNABII protein, HU-beta, from Staphylococcus aureus (Staphylococcus aureus, UniProt Q5HFV0 1-90); assay: adsorption ELISA, antigen coated; given as 'affinity', estimated as half-maximal binding concentration
T1 construct: mature; also called HU Sa; HU-beta of S. aureus; not shown: poly-histidine tag
T1 sequence: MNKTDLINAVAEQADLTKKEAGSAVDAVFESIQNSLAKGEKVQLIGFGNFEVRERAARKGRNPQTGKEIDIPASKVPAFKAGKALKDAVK

[2] = target: T2, DNABII protein from Klebsiella pneumoniae (IHF; IHF-alpha by the legend of FIGS. 7A-7C) (Klebsiella pneumoniae, UniProt A6TAI1 1-99); assay: ELISA at pH 6.5; printed as 'Affinity (nM)'
T2 construct: also called Kp; K. pneumoniae
T2 sequence: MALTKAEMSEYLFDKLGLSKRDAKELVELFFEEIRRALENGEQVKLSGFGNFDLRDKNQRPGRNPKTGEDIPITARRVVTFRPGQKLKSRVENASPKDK

[3] = target: T3, DNABII protein from Pseudomonas aeruginosa (IHF-alpha by the legend of FIGS. 7A-7C) (Pseudomonas aeruginosa, UniProt Q51472 2-100); assay: ELISA at pH 6.5; printed as 'Affinity (nM)'
T3 construct: mature; also called Pa; P. aeruginosa; not shown: poly-histidine tag
T3 sequence: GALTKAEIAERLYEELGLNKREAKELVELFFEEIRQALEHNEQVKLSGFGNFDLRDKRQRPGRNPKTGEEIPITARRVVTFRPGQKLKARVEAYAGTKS

[4] = target: T1, full length DNABII protein, HU-beta, …; assay: ELISA at pH 6.5; printed as 'Affinity (nM)'
[5] = target: T2, DNABII protein from Klebsiella …; assay: ELISA at pH 2.5; printed as 'Affinity (nM)'
[6] = target: T3, DNABII protein from Pseudomonas …; assay: ELISA at pH 2.5; printed as 'Affinity (nM)'
[7] = target: T1, full length DNABII protein, HU-beta, …; assay: ELISA at pH 2.5; printed as 'Affinity (nM)'
[8] = target: T2, DNABII protein from Klebsiella …; assay: ELISA at pH 7.5; printed as 'Affinity (nM)'
[9] = target: T3, DNABII protein from Pseudomonas …; assay: ELISA at pH 7.5; printed as 'Affinity (nM)'
[10] = target: T1, full length DNABII protein, HU-beta, …; assay: ELISA at pH 7.5; printed as 'Affinity (nM)'
[11] = target: T2, DNABII protein from Klebsiella …; assay: ELISA at pH 3.5; printed as 'Affinity (nM)'
[12] = target: T3, DNABII protein from Pseudomonas …; assay: ELISA at pH 3.5; printed as 'Affinity (nM)'
[13] = target: T1, full length DNABII protein, HU-beta, …; assay: ELISA at pH 3.5; printed as 'Affinity (nM)'
[14] = target: T2, DNABII protein from Klebsiella …; assay: ELISA at pH 5.5; printed as 'Affinity (nM)'
[15] = target: T3, DNABII protein from Pseudomonas …; assay: ELISA at pH 5.5; printed as 'Affinity (nM)'
[16] = target: T1, full length DNABII protein, HU-beta, …; assay: ELISA at pH 5.5; printed as 'Affinity (nM)'
[17] = target: T2, DNABII protein from Klebsiella …; assay: ELISA at pH 4.5; printed as 'Affinity (nM)'
[18] = target: T3, DNABII protein from Pseudomonas …; assay: ELISA at pH 4.5; printed as 'Affinity (nM)'
[19] = target: T1, full length DNABII protein, HU-beta, …; assay: ELISA at pH 4.5; printed as 'Affinity (nM)'
[20] = target: T4, DNABII protein from Acinetobacter baumannii (Acinetobacter baumannii); assay: adsorption ELISA, antigen coated; printed as 'Affinity (pM)', half-maximal binding concentration
T4 construct: mature
T4 sequence (B7I698 whole entry): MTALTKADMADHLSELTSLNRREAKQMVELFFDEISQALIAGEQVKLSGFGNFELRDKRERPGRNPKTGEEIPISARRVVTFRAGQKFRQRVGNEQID

[21] = target: T5, DNABII protein from Haemophilus influenzae (IHF) (Haemophilus influenzae); assay: as above
T5 construct: mature; also called H. influenzae; IHF from Haemophilus influenzae
T5 sequence (P43723 whole entry): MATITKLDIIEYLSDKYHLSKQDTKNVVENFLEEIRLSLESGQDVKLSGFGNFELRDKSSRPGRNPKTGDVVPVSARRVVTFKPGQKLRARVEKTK

[22] = target: peptide 20, SGSG … (Staphylococcus aureus); assay: ELISA, biotinylated peptides on streptavidin coated plates
[23] = target: peptide 19, SGSG … (Staphylococcus aureus); assay: as above
[24] = target: peptide 18, SGSG … (Staphylococcus aureus); assay: as above
peptide 26, […] = peptide 26, […] (Staphylococcus aureus); assay: as above
[25] = target: peptide 13, SGSG … (Staphylococcus aureus); assay: as above
[26] = target: peptide 12, SGSG … (Staphylococcus aureus); assay: as above
[27] = target: peptide 6, SGSG … (Staphylococcus aureus); assay: as above
[28] = target: peptide 14, SGSG … (Staphylococcus aureus); assay: as above

B1: TRL1361 (antibody, V domains shown)
VH: QVQLVESGGGLAQPGGSLRLSCAASGFIFNTYAMGWVRQAPGKGLEWVSTVSAPGAGTYYTDSVKGRFIISRDNSKNILYLQMNRLRVEDTAVYYCARDQGGPAVAGARIFDYWGQGALVTVSS
VL: DIVLTQSPLSLSVTPGQPASISCKSSQSLLRSDGKTYLCWYLQKPGQPPQLLIYEVSNRVSGVPDRFSGSGSGTDFTLKISRVEAEDVGVYYCMQSIQLRTFGQGTKVEIKR
EC50 [1]: 6.6 nM

B2: TRL1337 (antibody, V domains shown)
VH: QVQLLESGPGLVKPSETPSLTCTVSGGSIRSYYWSWIRQPPGKGLEWIGYIYYSGSTNYNPSLKSRVTISVDMSKNQFSLKLSSVTAADTAMYYCARVYGGSGSYDFDYWGQGTLVTVSS
VL: DIVLTQSPSASGSPGQSVTISCTGTSSDVGGYNYVSWYQQLPGKAPKLMIYEVTKRPSGVPDRFSGSKSGNTASLTVSGLQAEDEADYYCSSFAGSNNHVVFGGGTKLTVL
EC50 [1]: 6 nM

B3: TRL1068 (antibody, V domains shown)
VH: QVQLVESGPGLVKPSETLSLTCRVSGDSNRPSYWSWIRQAPGKAMEWIGYVYDSGVTIYNPSLKGRVTISLDTSKTRFSLKLTSVIAADTAVYYCARERFDRTSYKSWWGQGTQVTVSS
VL: DIVLTQAPGTLSLSPGDRATLSCRASQRLGGTSLAWYQHRSGQAPRLILYGTSNRATDTPDRFSGSGSGTDFVLTISSLEPEDFAVYYCQQYGSPPYTFGQGTTLDIK
EC50 [2]: 0.006 nM | EC50 [3]: 0.005 nM | EC50 [4]: 0.012 nM | EC50 [5]: 2.6 nM | EC50 [6]: 2.1 nM | EC50 [7]: 3.5 nM | EC50 [8]: 0.006 nM | EC50 [9]: 0.005 nM | EC50 [10]: 0.01 nM | EC50 [11]: 3 nM | EC50 [12]: 0.26 nM | EC50 [13]: 0.36 nM | EC50 [14]: 0.009 nM | EC50 [15]: 0.006 nM | EC50 [16]: 0.012 nM | EC50 [17]: 0.05 nM | EC50 [18]: 0.009 nM | EC50 [19]: 0.012 nM | EC50 [20]: 0.01 nM | EC50 [21]: 5 nM

B4: TRL1335 (antibody, V domains shown)
VH: QVQLVESGAEVKKPGESLKISCKGSGYNFTSYWIGWVRQMPGKGLEWMGVIYPDDSDTRYSPSFKGQVTISADKSISTAFLQWSSLKASDTAVYHCARPPDSWGQGTLVTVSS
VL: DIVMTQSPATLSVSPGERATLSCRASQSVSSNLAWYQQKPGLAPRLLIVGASNRATGIPARFSGSGSGTEFTLTISSLQSEDFAFYYCQQYNNWPFTFGPGTKVDVKR
binding result [22]: no binding | binding result [23]: no binding | binding result [24]: no binding | binding result (peptide 26, […]): no binding | binding result [25]: no binding | binding result [26]: no binding | binding result [27]: no binding | binding result [28]: no binding

B5: TRL1338 (antibody, V domains shown)
VH: QLTLRESGPTLVKPTQTLTLTCTFSGFSLSTNGVGVGWIRQPPGKALEWLAIIYWDDDKRYSPSLKSRLTITKDTSKNQVVLTLTNMDPVDTGTYYCAHILGASNYWTGYLRYYFDYWGQGTLVTVST
VL: DIEMTQSPSVSVSPGQTARITCSGEPLAKQYAYWYQQKSGQAPVVVIYKDTERPSGIPERFSGSSSGTTVTLTISGVQAEDEADYHCESGDSSGTYPVFGGGTKLTVL
EC50 [1]: 42 nM

B6: TRL1330 (antibody, V domains shown)
VH: QVQLVESGTEVKNPGASVKVSCTASGYKFDEYGVSWVRQSPGQGLEWMGWISVYNGKTNYSQNFQGRLTLTTETSTDTAYMELTSLRPDDTAVYYCATDKNWFDPWGPGTLVTVSS
VL: DIVLTQSPSASGSPGQSITISCTGTNTDYNYVSWYQHHPGKAPKVIIYDVKKRPSGVPSRFSGSRSGNTATLTVSGLQTEDEADYYCVSYADNNHYVFGSGTKVTVL
EC50 [20]: 0.017 nM | EC50 [21]: 0.026 nM
